In article PMC8849102 one finds fold viral titer immunoprecipitated over control beads data, which are given here for 1 substance.

For this assay, the target named is recombinant human ICAM-5 Fc Chimera (human) (UniProt Q9UMF0). The assay can be described thus: pull-down; ICAM-5 Fc chimera covalently attached to magnetic Dynabeads; incubated with the 1.11 (membrane-associated) or 1.20 g/cm^3 (naked) viral density fraction for 1 h at 33°C, then overnight at 4°C; beads rinsed 2x for 10 min in PBS; bound virus read as viral titer (TCID50) after PBS plus 0.1% NP-40; control: nonspecific antibody-coated beads.
UniProt Q9UMF0, sequence (Q9UMF0 32-835, stated change not applied): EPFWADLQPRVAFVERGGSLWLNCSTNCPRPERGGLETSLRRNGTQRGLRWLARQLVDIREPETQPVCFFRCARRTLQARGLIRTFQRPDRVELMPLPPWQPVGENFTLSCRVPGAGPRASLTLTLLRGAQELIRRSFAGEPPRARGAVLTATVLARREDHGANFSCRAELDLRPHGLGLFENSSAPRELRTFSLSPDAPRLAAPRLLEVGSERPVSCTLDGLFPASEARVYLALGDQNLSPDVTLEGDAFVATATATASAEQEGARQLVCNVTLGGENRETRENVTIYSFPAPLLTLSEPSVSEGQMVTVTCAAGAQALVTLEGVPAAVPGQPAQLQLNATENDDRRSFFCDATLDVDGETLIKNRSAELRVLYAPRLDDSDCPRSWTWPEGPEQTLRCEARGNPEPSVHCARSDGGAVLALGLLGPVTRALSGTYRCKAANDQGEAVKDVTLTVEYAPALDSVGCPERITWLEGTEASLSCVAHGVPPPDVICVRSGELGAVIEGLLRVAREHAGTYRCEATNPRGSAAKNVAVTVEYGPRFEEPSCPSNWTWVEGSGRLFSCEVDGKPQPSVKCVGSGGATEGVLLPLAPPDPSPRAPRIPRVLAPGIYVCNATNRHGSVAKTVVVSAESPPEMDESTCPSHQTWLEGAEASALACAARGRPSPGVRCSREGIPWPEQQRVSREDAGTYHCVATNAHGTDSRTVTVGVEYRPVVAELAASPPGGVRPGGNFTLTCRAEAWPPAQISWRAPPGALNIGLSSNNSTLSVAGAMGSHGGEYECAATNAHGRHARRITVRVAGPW

Turning to “Enterovirus D68 (EV-D68) viral particles, strain US/MO/14-18947 (complex)”, the fold viral titer immunoprecipitated over control beads was 1000 fold.
